Molecular target: T1, rPPE2 (Mycobacterium tuberculosis, UniProt P9WI47 1-556)
T1 sequence: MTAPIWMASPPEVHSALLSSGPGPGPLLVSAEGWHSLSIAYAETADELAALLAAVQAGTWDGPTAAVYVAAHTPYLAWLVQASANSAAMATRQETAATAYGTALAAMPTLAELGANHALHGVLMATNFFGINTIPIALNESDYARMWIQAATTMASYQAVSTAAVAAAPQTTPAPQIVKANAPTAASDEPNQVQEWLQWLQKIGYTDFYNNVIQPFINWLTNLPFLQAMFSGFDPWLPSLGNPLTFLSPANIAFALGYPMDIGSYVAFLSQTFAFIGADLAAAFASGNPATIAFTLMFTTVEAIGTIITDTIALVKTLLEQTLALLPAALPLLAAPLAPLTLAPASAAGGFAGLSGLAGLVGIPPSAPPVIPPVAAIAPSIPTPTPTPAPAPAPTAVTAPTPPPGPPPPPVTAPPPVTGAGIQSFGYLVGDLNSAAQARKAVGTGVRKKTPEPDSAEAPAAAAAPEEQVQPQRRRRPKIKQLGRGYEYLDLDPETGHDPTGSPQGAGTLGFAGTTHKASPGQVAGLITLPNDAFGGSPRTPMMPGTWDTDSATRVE
Experiment: EMSA; 20 mM HEPES, 0.5 mM DTT, 0.5 mM EDTA, 5% glycerol; […]; 30 min at room temperature; […]
Settings: protein: recombinant; tags: His (pRSET-A vector, TALON purified); label: 32P 5' end label (T4 PNK)

B1: scf core promoter 60-bp EMSA oligonucleotide (dsDNA)
DNA 1: CGCGTGCGGGCGGGAGGGAGCTGTATAAAAAGCGCTGGCGGCGCAGCAGCCGGGGCTTCATTTGCG
DNA 2: CGCAAATGAAGCCCCGGCTGCTGCGCCGCCAGCGCTTTTTATACAGCTCCCTCCCGCCCGCACGCG
binding result: binds
